Experiments:
[1] = biological target: T1, cJun (cJun/cJun homodimer) (UniProt P05412 1-331, C269S); assay: EMSA; 0.4-6.5 nM; low or sub-nanomolar; EMSA: 100 mM KCl, 4 mM MgCl2, 20 mM Tris pH 7.9, 20 mM HEPES pH 7.9, 10% glycerol, 0.1 mM DTT, 60 ug/ml BSA, 0.06% NP-40, 50 ng poly(dI-dC), on ice; 50 pM 32P-D; settings: protein: recombinant; chain copies: 2; label: 5'-FAM or 32P
[2] = biological target: T2, cJun (cJun/cJun homodimer);cFos (in cJun/cFos heterodimer) (;, UniProt P05412;P01100 1-331;1-380, C269S|C154S); assay: EMSA; 0.4-6.5 nM protein; EMSA: 100 mM KCl, 4 mM MgCl2, 20 mM Tris pH 7.9, 20 mM HEPES pH 7.9, 10% glycerol, 0.1 mM DTT, 60 ug/ml BSA, 0.06% NP-40, 50 ng poly(dI-dC), on ice; 50 pM 32P-D; settings: protein: recombinant;recombinant; tags: ;6His; copies: 1;1; label: 5'-FAM or 32P
[3] = biological target: T1, cJun (cJun/cJun homodimer); assay: EMSA; EMSA: 100 mM KCl, 4 mM MgCl2, 20 mM Tris pH 7.9, 20 mM HEPES pH 7.9, 10% glycerol, 0.1 mM DTT, 60 ug/ml BSA, 0.06% NP-40, 50 ng poly(dI-dC), on ice; 50 pM 32P-D; settings: protein: recombinant, chain copies: 2
[4] = biological target: T2, cJun (cJun/cJun homodimer);cFos (in …); assay: EMSA; higher affinity than cJun/cJun; EMSA: 100 mM KCl, 4 mM MgCl2, 20 mM Tris pH 7.9, 20 mM HEPES pH 7.9, 10% glycerol, 0.1 mM DTT, 60 ug/ml BSA, 0.06% NP-40, 50 ng poly(dI-dC), on ice; 50 pM 32P-D; settings: protein: recombinant;recombinant; tags: ;6His; copies: 1;1; label: 32P or 5'-Cy5; blunt
[5] = biological target: T1, cJun (cJun/cJun homodimer); assay: competition; vs Cy5-labeled AP-1 DNA; EMSA: 100 mM KCl, 4 mM MgCl2, 20 mM Tris pH 7.9, 20 mM HEPES pH 7.9, 10% glycerol, 0.1 mM DTT, 60 ug/ml BSA, 0.06% NP-40, 50 ng poly(dI-dC), on ice; 50 pM 32P-D; settings: protein: recombinant; chain copies: 2; hairpin
[6] = biological target: T1, cJun (cJun/cJun homodimer); assay: DNase I footprinting; broad protection; EMSA: 100 mM KCl, 4 mM MgCl2, 20 mM Tris pH 7.9, 20 mM HEPES pH 7.9, 10% glycerol, 0.1 mM DTT, 60 ug/ml BSA, 0.06% NP-40, 50 ng poly(dI-dC), on ice; 50 pM 32P-D; settings: protein: recombinant; chain copies: 2; label: 32P; three stem-loops, nt 13-68

| Binder | binding result [1] | binding result [2] | other results |
| --- | --- | --- | --- |
| aptamer-27 (structured_DNA) DNA: GGGAGATCACTTACGGCACCAACGTCTCGTTGGTCGTTCCAGCGTTCTAGATGGATTCAGGCGACAGGGCTCGGAACC | binds | no binding | – |
| aptamer-19(12-74) (structured_DNA) DNA: TACGGCACCGTATAGTCGTACATGAACGAGTGTGAGTGTTAAGCCTTTGGCGACAGGGCTCGG | – | – | Kd ([3]; label: 32P, three stem-loops, nt 13-68): 0.5 nM |
| AP-1 DNA (dsDNA) DNA 1: AGGTCGTGACTCAGCGG DNA 2: CCGCTGAGTCACGACCT | – | – | Kd ([3]; label: 32P or 5'-Cy5, blunt): ~15 nM; binding result [4]: binds |
| aptamer-16 (structured_DNA) DNA: GGGAGATCACTTACGGCACCCGGAGGGTCGTTACCCACTGTTTGTTGGTATAAAGCCTGGCGACAGGGCTCGGAACC | binds | no binding | – |
| aptamer-1 (structured_DNA) DNA: GGGAGATCACTTACGGCACCAGTCGTCGTTACTGCATTGCTCTATGGAGTATAAGCCCTGCGACAGGGCTCGGAACC | binds | no binding | – |
| GTCCATGACTCAGAAGAGACACACTCTTCTGAGTCATGGAC (structured_DNA) [AP-1 DNA decoy (hairpin)] | – | – | binding result [5]: binds |
| aptamer-19 (structured_DNA) DNA: GGGAGATCACTTACGGCACCGTATAGTCGTACATGAACGAGTGTGAGTGTTAAGCCTTTGGCGACAGGGCTCGGAACC | – | – | binding result [6]: binds |
| GTCCAAATCTCAGAAGAGACACACTCTTCTGAGATTTGGAC (structured_DNA) [mutant AP-1 decoy (hairpin)] | – | – | binding result [5]: no binding |
